In paper PMC12630360:

What was measured:
[1] = biological target: HLA class I heavy chains of HeLa/US6 cells (the H of HLA-Hβ in the BFA/temperature upshift decays) (human (endogenous in HeLa)); assay: flow cytometry on cells; BFA/temperature upshift decays: cells overnight at 25 °C, 10 μg/ml brefeldin A, then 37 °C for the indicated times; surface Hβ and fH followed with conformation-specific mAbs; half-times fitted (by hand or Solver) with a first-order in silico model
[2] = biological target: H-2L^d heavy chain (free heavy chain, L^d-fH, when without β2m and peptide) (mouse); assay: as above
H-2L^d heavy chain (free heavy chain, L^d-fH, when without β2m and peptide) (mouse), sequence (P01897 25-362): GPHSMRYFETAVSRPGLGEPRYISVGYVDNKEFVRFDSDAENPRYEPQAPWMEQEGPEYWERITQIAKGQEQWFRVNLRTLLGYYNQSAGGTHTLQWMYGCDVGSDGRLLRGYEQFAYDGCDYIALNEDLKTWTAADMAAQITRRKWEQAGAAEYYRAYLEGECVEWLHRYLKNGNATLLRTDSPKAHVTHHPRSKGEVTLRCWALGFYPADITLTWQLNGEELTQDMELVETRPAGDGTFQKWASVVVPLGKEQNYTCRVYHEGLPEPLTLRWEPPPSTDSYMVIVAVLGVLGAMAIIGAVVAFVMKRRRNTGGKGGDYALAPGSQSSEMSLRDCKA

| Substance | half-time of β2m dissociation (r1) at 37 °C [1] | half-time of β2m dissociation (r1) at 37 °C [2] |
| --- | --- | --- |
| beta-2 microglobulin of HeLa/US6 cells (from UniProt P61769 21-119) (natural protein) | 10 min | – |
| beta-2 microglobulin of STF1 cells (from UniProt P61769 21-119) (natural protein) | – | 3 min |
